US20250163162A1 (SYNTHEKINE, published 2025)

Experiments:
Assay in all cases: cell-based or functional assay
IL10Rα/IL2Rγ receptor [1] = target: T1, IL10Rα/IL2Rγ receptor (human, UniProt Q13651 22-578; P31785 23-369)
T1 sequence (looked up) 1: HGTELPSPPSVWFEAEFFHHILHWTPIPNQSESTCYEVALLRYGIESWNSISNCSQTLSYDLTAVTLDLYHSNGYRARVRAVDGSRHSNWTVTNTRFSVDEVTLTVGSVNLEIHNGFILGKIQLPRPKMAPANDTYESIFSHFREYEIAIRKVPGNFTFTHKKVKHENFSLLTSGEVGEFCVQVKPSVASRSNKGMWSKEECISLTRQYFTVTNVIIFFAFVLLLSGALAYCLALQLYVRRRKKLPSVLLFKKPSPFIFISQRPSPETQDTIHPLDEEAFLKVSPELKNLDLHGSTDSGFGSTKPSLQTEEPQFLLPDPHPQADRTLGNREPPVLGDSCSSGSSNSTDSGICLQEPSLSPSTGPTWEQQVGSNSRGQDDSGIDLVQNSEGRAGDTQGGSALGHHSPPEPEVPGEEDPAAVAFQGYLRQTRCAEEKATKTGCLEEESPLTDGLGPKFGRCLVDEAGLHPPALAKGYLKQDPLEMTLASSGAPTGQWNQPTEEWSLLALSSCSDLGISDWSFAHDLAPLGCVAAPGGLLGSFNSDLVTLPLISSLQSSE
T1 sequence (looked up) 2: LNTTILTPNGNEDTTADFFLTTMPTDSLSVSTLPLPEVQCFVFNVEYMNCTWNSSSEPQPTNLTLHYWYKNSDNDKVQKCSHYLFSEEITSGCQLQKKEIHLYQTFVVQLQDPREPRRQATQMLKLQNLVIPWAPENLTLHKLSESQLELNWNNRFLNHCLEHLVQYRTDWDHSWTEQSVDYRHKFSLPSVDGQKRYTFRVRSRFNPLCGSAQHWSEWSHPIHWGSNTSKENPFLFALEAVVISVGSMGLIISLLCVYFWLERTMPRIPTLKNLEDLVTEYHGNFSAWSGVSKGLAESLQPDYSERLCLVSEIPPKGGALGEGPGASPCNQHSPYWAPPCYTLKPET

IL10Rα/IL2Rγ receptor [2] = target: T1, IL10Rα/IL2Rγ receptor; remark: listed apart in the source
IL10Rα/IL2Rγ receptor [3] = target: T1, IL10Rα/IL2Rγ receptor; remark: listed apart in the source
IL10Rα/IL2Rγ receptor [4] = target: T1, IL10Rα/IL2Rγ receptor; remark: listed apart in the source
IL10Rα/IL2Rγ receptor [5] = target: T1, IL10Rα/IL2Rγ receptor; remark: listed apart in the source
IL10Rα/IL2Rγ receptor [6] = target: T1, IL10Rα/IL2Rγ receptor; remark: listed apart in the source

B1: DR465(DR240-DR231) (bispecific antibody)
chain: QVQLQESGGGSVQAGGSLRLSCGASGYTYSSYCMGWFRQVPGKEREGVAVIDSDGSTSYADSVKGRFTISKDNGKNTLYLQMNSLKPEDTAMYYCAADLGHYRPPCGVLYLGMDYWGKGTQVTVSSGGGSQVQLQESGGGSVQAGGSLRLSCTASGFTFDDREMNWYRQAPGNECELVSTISSDGSTYYADSVKGRFTISQDNAKNTVYLQMDSVKPEDTAVYYCAADFMIAIQAPGAGCWGQGTQVTVSSASHHHHHH
Question: With B1 as the binder, how does the “pSTAT3 MFI, B cells, 0.0001 nM (unstimulated 1193.5)” value (IL10Rα/IL2Rγ receptor [1]) read?
Answer: The value was 1110 MFI.

Question: And the “pSTAT3 MFI, B cells, 0.001 nM (unstimulated 1193.5)” value (IL10Rα/IL2Rγ receptor [1])?
Answer: The value was 1100 MFI.

Question: What about the “pSTAT3 MFI, B cells, 0.01 nM (unstimulated 1193.5)” value (IL10Rα/IL2Rγ receptor [1]) of the same binder?
Answer: Its value is 1090 MFI.

Question: And the “pSTAT3 MFI, B cells, 0.1 nM (unstimulated 1193.5)” value (IL10Rα/IL2Rγ receptor [1])?
Answer: Its value is 1110 MFI.

Question: What about the “pSTAT3 MFI, B cells, 1 nM (unstimulated 1193.5)” value (IL10Rα/IL2Rγ receptor [1]) of the same binder?
Answer: Its value is 1290 MFI.

Question: And the “pSTAT3 MFI, B cells, 10 nM (unstimulated 1193.5)” value (IL10Rα/IL2Rγ receptor [1])?
Answer: Its value is 1840 MFI.

Question: And the “pSTAT3 MFI, B cells, 100 nM (unstimulated 1193.5)” value (IL10Rα/IL2Rγ receptor [1])?
Answer: The value was 1850 MFI.

Question: And the “pSTAT3 MFI, Monocytes, 0.0001 nM (unstimulated 2116)” value (IL10Rα/IL2Rγ receptor [2])?
Answer: The value was 1990 MFI.

Question: What about the “pSTAT3 MFI, Monocytes, 0.001 nM (unstimulated 2116)” value (IL10Rα/IL2Rγ receptor [2]) of the same binder?
Answer: The value was 1970 MFI.

Question: And the “pSTAT3 MFI, Monocytes, 0.01 nM (unstimulated 2116)” value (IL10Rα/IL2Rγ receptor [2])?
Answer: The value was 1950 MFI.

Question: What about the “pSTAT3 MFI, Monocytes, 0.1 nM (unstimulated 2116)” value (IL10Rα/IL2Rγ receptor [2]) of the same binder?
Answer: The value was 1960 MFI.

Question: What about the “pSTAT3 MFI, Monocytes, 1 nM (unstimulated 2116)” value (IL10Rα/IL2Rγ receptor [2]) of the same binder?
Answer: Its value is 2110 MFI.

Question: And the “pSTAT3 MFI, Monocytes, 10 nM (unstimulated 2116)” value (IL10Rα/IL2Rγ receptor [2])?
Answer: The value was 2470 MFI.

Question: And the “pSTAT3 MFI, Monocytes, 100 nM (unstimulated 2116)” value (IL10Rα/IL2Rγ receptor [2])?
Answer: The value was 2470 MFI.

Question: And the “pSTAT3 MFI, B cells, 100 nM (unstimulated 1045)” value (IL10Rα/IL2Rγ receptor [3])?
Answer: The value was 1660 MFI.

Question: What about the “pSTAT3 MFI, CD4+ T cells, 100 nM (unstimulated 1778)” value (IL10Rα/IL2Rγ receptor [3]) of the same binder?
Answer: The value was 6350 MFI.

Question: What about the “pSTAT3 MFI, CD8+ T cells, 100 nM (unstimulated 1288)” value (IL10Rα/IL2Rγ receptor [3]) of the same binder?
Answer: Its value is 4510 MFI.

Question: What about the “pSTAT3 MFI, Monocytes, 100 nM (unstimulated 1787)” value (IL10Rα/IL2Rγ receptor [3]) of the same binder?
Answer: Its value is 2350 MFI.

Question: What about the “pSTAT3 MFI, NK cells, 100 nM (unstimulated 1149)” value (IL10Rα/IL2Rγ receptor [3]) of the same binder?
Answer: Its value is 1880 MFI.

Question: What about the “pSTAT3 MFI, NK cells, 0.0001 nM (unstimulated 1315)” value (IL10Rα/IL2Rγ receptor [4]) of the same binder?
Answer: The value was 1220 MFI.

Question: And the “pSTAT3 MFI, NK cells, 0.001 nM (unstimulated 1315)” value (IL10Rα/IL2Rγ receptor [4])?
Answer: The value was 1230 MFI.

Question: What about the “pSTAT3 MFI, NK cells, 0.01 nM (unstimulated 1315)” value (IL10Rα/IL2Rγ receptor [4]) of the same binder?
Answer: The value was 1220 MFI.

Question: What about the “pSTAT3 MFI, NK cells, 0.1 nM (unstimulated 1315)” value (IL10Rα/IL2Rγ receptor [4]) of the same binder?
Answer: The value was 1250 MFI.

Question: And the “pSTAT3 MFI, NK cells, 1 nM (unstimulated 1315)” value (IL10Rα/IL2Rγ receptor [4])?
Answer: The value was 1520 MFI.

Question: What about the “pSTAT3 MFI, NK cells, 10 nM (unstimulated 1315)” value (IL10Rα/IL2Rγ receptor [4]) of the same binder?
Answer: Its value is 2040 MFI.

Question: And the “pSTAT3 MFI, NK cells, 100 nM (unstimulated 1315)” value (IL10Rα/IL2Rγ receptor [4])?
Answer: Its value is 2130 MFI.

Question: What about the “pSTAT3 MFI, CD4 T cells, 0.0001 nM (unstimulated 1887)” value (IL10Rα/IL2Rγ receptor [5]) of the same binder?
Answer: The value was 1800 MFI.

Question: And the “pSTAT3 MFI, CD4 T cells, 0.001 nM (unstimulated 1887)” value (IL10Rα/IL2Rγ receptor [5])?
Answer: The value was 1800 MFI.

Question: What about the “pSTAT3 MFI, CD4 T cells, 0.01 nM (unstimulated 1887)” value (IL10Rα/IL2Rγ receptor [5]) of the same binder?
Answer: The value was 1850 MFI.

Question: And the “pSTAT3 MFI, CD4 T cells, 0.1 nM (unstimulated 1887)” value (IL10Rα/IL2Rγ receptor [5])?
Answer: Its value is 2210 MFI.

Question: What about the “pSTAT3 MFI, CD4 T cells, 1 nM (unstimulated 1887)” value (IL10Rα/IL2Rγ receptor [5]) of the same binder?
Answer: The value was 4730 MFI.

Question: And the “pSTAT3 MFI, CD4 T cells, 10 nM (unstimulated 1887)” value (IL10Rα/IL2Rγ receptor [5])?
Answer: The value was 7240 MFI.

Question: And the “pSTAT3 MFI, CD4 T cells, 100 nM (unstimulated 1887)” value (IL10Rα/IL2Rγ receptor [5])?
Answer: Its value is 7070 MFI.

Question: What about the “pSTAT3 MFI, CD8 T cells, 0.0001 nM (unstimulated 1446)” value (IL10Rα/IL2Rγ receptor [6]) of the same binder?
Answer: The value was 1390 MFI.

Question: And the “pSTAT3 MFI, CD8 T cells, 0.001 nM (unstimulated 1446)” value (IL10Rα/IL2Rγ receptor [6])?
Answer: Its value is 1370 MFI.

Question: And the “pSTAT3 MFI, CD8 T cells, 0.01 nM (unstimulated 1446)” value (IL10Rα/IL2Rγ receptor [6])?
Answer: The value was 1380 MFI.

Question: What about the “pSTAT3 MFI, CD8 T cells, 0.1 nM (unstimulated 1446)” value (IL10Rα/IL2Rγ receptor [6]) of the same binder?
Answer: The value was 1590 MFI.

Question: What about the “pSTAT3 MFI, CD8 T cells, 1 nM (unstimulated 1446)” value (IL10Rα/IL2Rγ receptor [6]) of the same binder?
Answer: The value was 3260 MFI.

Question: And the “pSTAT3 MFI, CD8 T cells, 10 nM (unstimulated 1446)” value (IL10Rα/IL2Rγ receptor [6])?
Answer: The value was 4850 MFI.

Question: What about the “pSTAT3 MFI, CD8 T cells, 100 nM (unstimulated 1446)” value (IL10Rα/IL2Rγ receptor [6]) of the same binder?
Answer: Its value is 5020 MFI.
